Laboratory results from PMC3963902 (PLoS ONE, 2014).

Key:
[1] = molecular target: the molecule itself; assay: crystal structure; His-tagged Se-Met labelled LpEst1; 1 M sodium malonate, 0.5% (v/v) Jeffamine ED-2001, 100 mM HEPES pH 7.0, 5 mM DTT; space group I4, four molecules in the asymmetric unit; 2.05 A
[2] = molecular target: the molecule itself; assay: SEC; analytical gel filtration on Superdex 200 10/300 GL Tricorn; 20 mM Tris-HCl pH 8.0, 0.1 M NaCl, 5 mM DTT, 0.04% sodium azide; size from Kav against standards
[3] = molecular target: the molecule itself; assay: AUC; sedimentation equilibrium at 12,000 and 18,000 rpm; Gln189Glu mutant 10 uM in McIlvaine buffer pH 5.0 (Na2PO4, citric acid); fit to an ideal single species

B1: His-tagged, selenomethionine (Se-Met) labelled LpEst1 (enzyme, Lactobacillus plantarum WCFS1, UniProt Q88Y25 1-337, looked up)
chain: MPTINSIQTTVNGVVKIVKPFNNDIAGEQFDPHVLQTLTAFKQPAILENDLAALRSGSLTPAIADPVGDAVTVQSRNITALNRTVSVEWLTPQNVINHTVLVYFHGGAFYGGVPGNNTVLLKLVAAKSHCEILNVDYSLAPEAPAPAGILDGLAIFQYLEQRDAETMITVAGDSAGANVIMAATNLNQQLGSNRINQQLLLYPVTAPNADHAGPLWDLAAFPIIDSQRAILTNYHDLFRQLDSIMTDYYVPENFDSHSPLISPLHQENFTMTPPTTIMVGEFDPFRPQAWAYAQRLAAADTATTFIQYQGLNHAFAPLVDQYWQSQDVAQVMAAALI
modifications: selenomethionine (Se-Met labelled)
notes: carboxylesterase LpEst1, Lactobacillus plantarum WCFS1, UniProtKB/Swiss-Prot Q88Y25; 337 residues; Methionines replaced by selenomethionine; incorporation checked by mass spectrometry; also called Se-Met LpEst1; Se-Met labelled LpEst1 esterase
- binding result [1]: binds

B2: carboxylesterase LpEst1 from Lactobacillus plantarum WCFS1 (wild type, native) (enzyme, UniProt Q88Y25 1-337, looked up)
chain: MPTINSIQTTVNGVVKIVKPFNNDIAGEQFDPHVLQTLTAFKQPAILENDLAALRSGSLTPAIADPVGDAVTVQSRNITALNRTVSVEWLTPQNVINHTVLVYFHGGAFYGGVPGNNTVLLKLVAAKSHCEILNVDYSLAPEAPAPAGILDGLAIFQYLEQRDAETMITVAGDSAGANVIMAATNLNQQLGSNRINQQLLLYPVTAPNADHAGPLWDLAAFPIIDSQRAILTNYHDLFRQLDSIMTDYYVPENFDSHSPLISPLHQENFTMTPPTTIMVGEFDPFRPQAWAYAQRLAAADTATTFIQYQGLNHAFAPLVDQYWQSQDVAQVMAAALI
notes: carboxylesterase LpEst1, Lactobacillus plantarum WCFS1, UniProtKB/Swiss-Prot Q88Y25; 337 residues, about 36.7 kDa; complete protein molecules in the crystal model; The crystals were of His-tagged protein; also called native LpEst1; wild-type protein; source: recombinant, from the expression vector pURI3-TEV-LpEst1
- stoichiometry N [2]: 2

B3: LpEst1 Gln189Glu mutant (enzyme, Lactobacillus plantarum WCFS1, UniProt Q88Y25 1-337, looked up)
chain: MPTINSIQTTVNGVVKIVKPFNNDIAGEQFDPHVLQTLTAFKQPAILENDLAALRSGSLTPAIADPVGDAVTVQSRNITALNRTVSVEWLTPQNVINHTVLVYFHGGAFYGGVPGNNTVLLKLVAAKSHCEILNVDYSLAPEAPAPAGILDGLAIFQYLEQRDAETMITVAGDSAGANVIMAATNLNQELGSNRINQQLLLYPVTAPNADHAGPLWDLAAFPIIDSQRAILTNYHDLFRQLDSIMTDYYVPENFDSHSPLISPLHQENFTMTPPTTIMVGEFDPFRPQAWAYAQRLAAADTATTFIQYQGLNHAFAPLVDQYWQSQDVAQVMAAALI
notes: carboxylesterase LpEst1, Lactobacillus plantarum WCFS1, UniProtKB/Swiss-Prot Q88Y25; 337 residues; single point mutant Gln189Glu; Made from the wild-type vector with the mutagenic primers printed in the methods; source: recombinant, point mutant of pURI3-TEV-LpEst1; purified (IMAC on a His-Trap FF column plus size exclusion chromatography, last step in McIlvaine buffer pH 5.0)
- stoichiometry N [3]: 2
